Experimental data as given in patent US20230094463A1, “ANTIBODIES THAT DISRUPT THE INTERACTION OF GAL3 AND INSULIN RECEPTOR OR INTEGRINS AND METHODS OF USE THEREOF” (TrueBinding, Inc., priority 2019, published 2023).

Columns and labels:
[1] = biological target: T1, Gal3 peptides (SEQ ID NOs: 3-26) (Homo sapiens, UniProt P17931); experiment: Gal3 peptide library binding ELISA (epitope mapping)
T1 construct: a library of 24 amino acid peptides representing portions of Gal3; purchased LifeTein custom order

[2] = tested on: high-fat diet fed diabetic C57BL6J mice; experiment: High-fat diet fed mouse model of type II diabetes; format: in vivo; conditions: HFD-fed mice; for liver steatosis (H&E stained liver sections): 10 mg/kg
From the text: To evaluate whether Gal3-INSR blockade by Gal3-targeted antibodies functionally impacted diabetes biology, a mouse model of type II diabetes was employed. Male C57BL6J mice were purchased from Jackson Lab and fed with high fat diet (HFD, 60% kcal from fat, Research Diet, Catalog #12492i) starting from 7-week old for 8 weeks, 10 or 16 weeks. Age-matched male C57BL6J mice fed with standard chow diet were used as control mice. […] Mice were fed with standard chow diet or HFD ad libitum except when fasted as indicated in the experiments. Glucose tolerance test (GTT) and insulin tolerance test (ITT) were done at 15 weeks and 16 weeks old (8 weeks and 9 weeks after HFD), respectively, to confirm the insulin resistant and glucose intolerant phenotype. For GTT, mice were fasted for 6 hours by transferring mice to clean cage with no food or faeces but with drinking water and then injected with 2 g/kg glucose (Sigma) and blood was drawn to measure glucose levels at 0, 15, 30, 60, 90, and 120 minutes after glucose injection. For ITT, mice were fasted for 6 hours, and then injected with 0.75 IU/kg body weight of Humalin-R (Eli Lilly) intraperitoneally. Blood from the tail was measured for glucose content using HemoCue Glucose 201 Analyzer at 0, 15, 30, 45, 60 minutes. Based on area under the curve (AUC) from ITT, HFD fed mice were randomized into two groups: human IgG4 isotype group and IMT001-4 treated group. At 17 weeks of age, mice were given antibody treatments by intraperitoneal injection twice a week for 5 doses before ITT and GTT were done at 19 weeks old and 20 weeks old. Human IgG4 isotype and IMT001-4 were dosed at 10 mg/kg with 100 μl/mouse and BM was dosed at […] with 100 μl/mouse. Treatments continued until the mice were sacked at 21 weeks old. The mice body weight was monitored one week after the mice arrived at the facility. Body weight was measured once a week using a balance. Mouse blood was collected using cardiac puncture. Liver, gastrocnemius muscle, and posterior subcutaneous white adipose fat were collected and weighed.
To further evaluate the ability of IMT001-4 to impact the pathological sequalae of diabetes, liver sections from animals treated as in FIGS. 3-5 were examined for signs of fat accumulation, e.g., steatosis. Briefly, liver specimens were fixed in 4% paraformaldehyde for 24 hours, placed in 70% EtOH for 3 days, embedded into paraffin and 10 μm sections were cut and mounted to glass slides and stained with hematoxylin and eosin and visualized on a Revolve microscope at 40× magnification. Images were evaluated by ImageJ to quantitate the extent of steatosis.
To further characterize the liver disease observed in histological samples, serum markers of liver dysfunction were evaluated in animals treated as above […]. Briefly, mouse plasma samples were obtained from whole blood sample in lithium heparin collection tubes. 100 μl of serum was dispensed into the rotor of a VetScan VS2 Blood Chemistry Analyzer (Abaxis) through the sample port. ALT levels were determined as per the manufacturer's specification. […] Accordingly, the Gal3-targeted Gal3-INSR blocking antibody, IMT001-4, has utility in reducing serum liver enzymes.

[3] = 10 mg/kg i.p. twice a week, vs isotype control

B1: TB001: Gal3-targeted Gal3-INSR blocking anti-Gal3 antibody; IMT001-4 used with human IgG4 isotype control (antibody, V domains shown)
VH: QVQLVQSGSELKKPGASVKVSCKASGYTFTNYGMNWVRQAPGQGLKWMGWINTNTGEPTYVEEFTGRFVFSLETSVSTAYLQISSLKAEDTAVYFCAPYDNFFAYWGQGTTVTVSS
VL: DIVLTQSPLSLPVTPGEPASISCRSSKSLLYKDGKTYLNWFLQKPGQSPQLLIYLMSTHASGVPDRFSGSGSGTDFTLKISRVEAEDVGVYYCQQLVDYPLTFGGGTKLEIK
[1]; Peptide 5 (SEQ ID NO: 7)
  binding to Gal3 Peptide 5: bind
[1]; Peptide 6 (SEQ ID NO: 8), amino acids 51-70 of Gal3, listed as IMT001 (TB001)
  binding to Gal3 Peptide 6: bind and bound
[2]; 10 mg/kg i.p. twice a week, 19 day study
  weight gain: did not gain any appreciable weight
[2]; 10 mg/kg i.p. twice a week
  liver steatosis (H&E stained liver sections): negligible levels of steatosis
[2]; 10 mg/kg i.p. twice a week, listed as IMT001-4 (TB001)
  liver steatosis (H&E stained liver sections): absence thereof
[2]; [3]
  glucose reduction in response to insulin challenge (insulin tolerance test): glucose clearance indistinguishable from non-diabetic mice fed a normal diet
  response to glucose challenge (glucose tolerance test): cleared glucose significantly more rapidly
[2]; relative to HFD-fed isotype-control treated mice
  serum liver enzyme ALT levels: significantly decreased
[2]; relative to isotype-control treated animals
  liver steatosis by image quantification (ImageJ): complete reversion of disease state
